In article PMC9001700:
Like-named read-outs stand apart in the source and are kept apart here.

Legend:
Test in all cases: BLI
[1] = target: HKU1 stem helix peptide (HCoV-HKU1)
[2] = target: MERS-CoV stem helix peptide (MERS-CoV)
[3] = target: OC43 stem helix peptide (HCoV-OC43)
[4] = target: SARS-CoV-2 stem helix peptide 1145-[…]-1167 (SARS-CoV-2)
[5] = target: HCoV-HKU1 stem helix peptide (HCoV-HKU1)
[6] = target: HCoV-OC43 stem helix peptide (HCoV-OC43)
[7] = target: MERS-CoV stem helix peptide (MERS-CoV); remark: listed apart in the source
[8] = target: SARS-CoV-2 stem helix peptide 1145-1167 (SARS-CoV-2)

CV3-25 Fab
Kd [1]: 31 nM
koff [1]: 0.000676 s⁻¹
kon [1]: 23000 M⁻¹ s⁻¹
Kd [2]: 20.4 nM
koff [2]: 0.000669 s⁻¹
kon [2]: 33000 M⁻¹ s⁻¹
Kd [3]: 39.3 nM
koff [3]: 0.000613 s⁻¹
kon [3]: 17000 M⁻¹ s⁻¹
Kd [4]: 5.23 nM
koff [4]: 0.000159 s⁻¹
kon [4]: 30000 M⁻¹ s⁻¹
Kd [5]: 31 nM
Kd [6]: 40 nM
Kd [7]: 20 nM
Kd [8]: 5.2 nM
